Laboratory results as given in PMC7295969.

Target: Orfelia fultoni luciferase (Orfelia fultoni (endogenous in larvae))
Test: native gel or EMSA; 6% Native-PAGE of the luciferase fraction from anion exchange, no SDS or mercaptoethanol, 25 mM Tris/192 mM glycine, ice-cooled; band shown by bioluminescence with hot extract; the luminescent ~220 kDa band was eluted and re-run on denaturing SDS-PAGE (single ~70 kDa band)

- stoichiometry N: 3
Substance: Orfelia fultoni luciferase (enzyme)
